The source of these data is paper PMC13323077, “Hydrophobic tuning with non-canonical amino acids in a copper metalloenzyme” (Nature Chemistry, 2026).

Substrate in data set [1]: CC(=O)N1c2ccc(O)cc2Oc2cc(O)ccc21
Kind of data set: purified protein. To be noted: pH 7.0, 25 °C, 20 mM Britton-Robinson buffer. The format is biochemical, Streptomyces coelicolor.

Substrate in data set [2]: CCn1c(=NN=c2sc3cc(S(=O)(=O)O)ccc3n2CC)sc2cc(S(=O)(=O)O)ccc21
The data set is described as follows: purified protein. Type of data set: biochemical, Streptomyces coelicolor. As to conditions: pH 4.0, 25 °C, 20 mM Britton-Robinson buffer.

Setting [3] is: 500 µM CuCl2, air O2, 1 µM enzyme.
Where [4] appears, read: 1 mM CuCl2, air O2, 1,000 nM enzyme.

B1: ScSLAC (Streptomyces coelicolor A3(2)) (protein)
chain: APAAKGITARTAPAGGEVRHLKMYAEKLADGQMGYGFEKGKASVPGPLIEVNEGDTLHIEFTNTMDVRASLHVHGLDYEISSDGTAMNKSDVEPGGTRTYTWRTHKPGRRDDGTWRPGSAGYWHYHDHVVGTEHGTGGIRNGLYGPVIVRRKGDVLPDATHTIVFNDMTINNRKPHTGPDFEATVGDRVEIVMITHGEYYHTFHMHGHRWADNRTGILTGPDDPSRVIDNKITGPADSFGFQIIAGEGVGAGAWMYHCHVQSHSDMGMVGLFLVKKPDGTIPGYEPHEHGGATAKSGESGEPTGGAAAHEHEH
notes: N-terminal signal peptide (residues 2-30) removed, C-terminal His6, pET28, expressed in E. coli B-95deltaAdeltafabR, Cu-loaded; homotrimer (known biology)
In the case of B1, in data set [1] (setting [3]), the Km is reported as 0.25(3) mM and the kcat is recorded as 0.045(4) min-1. Also, the Km in data set [2] (1 mM CuCl2, air O2, 200 nM enzyme) was 0.96(5) mM.

B2: ScSLAC (Streptomyces coelicolor A3(2); M296W/S292P) (protein)
chain: APAAKGITARTAPAGGEVRHLKMYAEKLADGQMGYGFEKGKASVPGPLIEVNEGDTLHIEFTNTMDVRASLHVHGLDYEISSDGTAMNKSDVEPGGTRTYTWRTHKPGRRDDGTWRPGSAGYWHYHDHVVGTEHGTGGIRNGLYGPVIVRRKGDVLPDATHTIVFNDMTINNRKPHTGPDFEATVGDRVEIVMITHGEYYHTFHMHGHRWADNRTGILTGPDDPSRVIDNKITGPADSFGFQIIAGEGVGAGAWMYHCHVQPHSDWGMVGLFLVKKPDGTIPGYEPHEHGGATAKSGESGEPTGGAAAHEHEH
notes: as for B1
Turning to B2, in data set [1] (500 µM CuCl2, air O2), the Km was 0.144(5) mM and the kcat is 0.405(4) min-1.

B3: ScSLAC (Streptomyces coelicolor A3(2); M298L) (protein)
chain: APAAKGITARTAPAGGEVRHLKMYAEKLADGQMGYGFEKGKASVPGPLIEVNEGDTLHIEFTNTMDVRASLHVHGLDYEISSDGTAMNKSDVEPGGTRTYTWRTHKPGRRDDGTWRPGSAGYWHYHDHVVGTEHGTGGIRNGLYGPVIVRRKGDVLPDATHTIVFNDMTINNRKPHTGPDFEATVGDRVEIVMITHGEYYHTFHMHGHRWADNRTGILTGPDDPSRVIDNKITGPADSFGFQIIAGEGVGAGAWMYHCHVQSHSDMGLVGLFLVKKPDGTIPGYEPHEHGGATAKSGESGEPTGGAAAHEHEH
notes: as for B1
With B3, in data set [2] (setting [4]), the Km is 1.19(7) mM and the kcat is 0.32(1) s-1.

B4: ScSLAC (Streptomyces coelicolor A3(2); M298F) (protein)
chain: APAAKGITARTAPAGGEVRHLKMYAEKLADGQMGYGFEKGKASVPGPLIEVNEGDTLHIEFTNTMDVRASLHVHGLDYEISSDGTAMNKSDVEPGGTRTYTWRTHKPGRRDDGTWRPGSAGYWHYHDHVVGTEHGTGGIRNGLYGPVIVRRKGDVLPDATHTIVFNDMTINNRKPHTGPDFEATVGDRVEIVMITHGEYYHTFHMHGHRWADNRTGILTGPDDPSRVIDNKITGPADSFGFQIIAGEGVGAGAWMYHCHVQSHSDMGFVGLFLVKKPDGTIPGYEPHEHGGATAKSGESGEPTGGAAAHEHEH
notes: as for B1
B4: in data set [2] (setting [4]), the Km is reported as 0.4(1) mM and the kcat is 0.19(3) s-1.
